Assay results published in the DeepSol protein solubility set.

Assay: soluble on expression in E. coli; label from the status in PepcDB or PDB records

Sequence	soluble on expression in E. coli
MSVDTKIIGSFLQLTNYFAENYPAPCDLISSLTDLWFKQGGMIARMMSCDIQEFKSSDVFYEVLYRKIRVGNSLLADTLDPKMAAEGNLFEICKFYSLYLEHLRKDQSELLTIVLERLASQSDFNSTVILDMFTFFDKLYSEGNVGDWWDFLLGSEDASMVFKTPKKTNRPSNAFSTPTATAKRLPMYGSSTCRSPIAEVVDSPTMKYMRSDRELKTAKKKLVDMEHMVDELESENRNLTEKGRELKLIIDSLKSDVTNKRDTAKSSQQREQELSNILEEKEKESAQLLQQLEESRAALRDEQRHLEHQEAENGKIVEQLKTVSELNEKLTMQVKDLQDASENELASFRQKEKELIDELRMATNENVDLEELLKGVTNGKAGLQFENNCLVGKLEELSFVSDRNKQDADNARAQLEEEREKHRLATEKLHQENIDYMKTSDSRIEMILEESKTRKMMDESTIERLRLDLDNEKSYKKNLEDLLNDLNQRALNSEMANHLQKEGIQSVETYLQMAKKRIEHLELELSATNATIEFQSQQLDRAGNMLITEQEIRNQTSVQYKERTSALENQLSQKDAEIENLKRDLQQLVTKHESELKEQHEQLNVHHQSQQKLHSEAEKLRREHEALGKKNCFLGERCKIFVKDSRSGVMKRSTSSDSLAEFLSKGNDNETLEEMMRLIAQTPRKSVAFSFDLDEDETLKGTPIGFRTNLNETRESIASDEFFDRFPSTFPTRAAPRESVVSIGEPKNQFSPLGTSKDRVKTLTSRNEKVKPHLKSSYATEMGNVTSPSADEENVRKGKSKSIFAKLKGPRRDSFFFGKKKQAE	not soluble
MSVEEAALALWAKSGNPFHPLLAHMLDTAAVALAVLRMEPPRTRALYAEDWGLPEEGALAWAAALVGLHDLGKASPVFQAGWEEGKERVQRAGLPFGELLDWVAHGVFTELFLRRLLKEKGLPERAANDLAAALGAHHGFPANAEEKSRARRHLRTEDPLWKEARRWLLEEVFRRLGAPLPPSQGNGEARPEAVLRVMALASFADWVASDPSLFPYGRDPRRGDYLKEALRLAQEALNRLGWPAFAKAQRREFGELFPYIPKPNALQESVPALLEGACTPVLLLVEAPMGMGKTEAALYAHHLLQAGLGHRGLYVALPTQATANGLFPRVRGFLERLGEGSRLELQLQHGTALLNPHYAGLLERAAPRQVGEEEEGGAVASAWFSARKRAMLAPYGVGTLDQALLGVLRVKHHFVRLWGLMNRVVVLDEVHAYDVYTSGLLQALLRWLRALGSSAVVMTATLPPSRRRALLEAWAGEEVEGQDLGPYPRVVLVGEGVKARSLPPAREVEVALEVLREVDVEPLAQRLKGALPGAVGAIVNTVDRAQDLYRALGEGTPLTLEELARRLGGISGGQAWEEVRQALPERGGEVVGKVLTDGTLVFLLHARFPAEERALRGSVVLALFGKGGPRPPRAILVATQVAEQSLDLDFDLLYTDLAPIDLLFQRSGRLHRHERPRPEEHARPRLLLGVPEDLDFGKPLYWDKVYEDYVLLATWRALSGRDRLRVPGDLEALLEEIYEGENPESFPEGLRERAKKSLKALQERRDREANTARRLSLSELDRLLAYWDEGALVAQERLEDDEEKAETQRLLTRLGDPSVAVVPLFRVGEGLFLDREGRRRAPLKGEVSREEAEALFRRAVRLSRFPLPQELLKEEPPPAWRKSGLLRGLRPLEVGRVFRSGERAFQVELDPELGVVYLPV	soluble
MSVIQNIIGRIAVLRGGKYSVEVDVATDEGFGRFTSPIDDNPMLHIAEARRAVSEVDEIIGPELIGFDASEQELIDSYLWEIDGTEDFSHIGANTALAVSTAIAKAAANSRDMPLYSYIGGTFATELPVPVLSFAQDDMFDYYLVVKDLLEVTDIIDATNKIREIVKEINLENLSKASEDVGVELGLEVALGIGMKKEMDIEKVLNLVEDYNVAYIKPIGPPELFLELIAGTHGVFIDGEYLFRTNSVLDRRYYNALSIKPINLGTLTDLYNFVNDVKAEKITPILAEAKYEPADETFPHIALGLRCPAMLISWSSIEKINELNRIAEELGERGRIITFEE	soluble
MSVNSIYTDREEIDSEFEDEDFEKEGIATVERAMENNHDLDTALLELNTLRMSMNVTYHEVRIATITALLRRVYHFIATQTLGPKDAVVKVFNQWGLLFKRQAFDEEEYIDLMNIIMEKIVEQSFDKPDLILFSALVSLYDNDIIEEDVIYKWWDNVSTDPRYDEVKKLTVKWVEWLQNADEESSSEEE	soluble
MSVRATVVKRTISGGKGKISEYCDGTKAVFHYQALFPIEKHEKGQPLSLEKDAFKSIDDTRKPWPHGYGKPLEIVFGKKFQLPVFEQCLKTMLVDEISQFDVECIDLVQYPFVSKKLRDLVKPCDGKHSHAHTTHMCAASIAQGTGYEELDELMKNPRPLRFVFHLLQVFEPDQYVHDSWQLDEDDKLKSVEALRQKGNELFVQKDYKEAIDAYRDALTRLDTLILREKPGEPEWVELDRKNIPLYANMSQCYLNIGDLHEAEETSSEVLKREETNEKALFRRAKARIAAWKLDEAEEDLKLLLRNHPAAASVVAREMKIVTERRAEKKADSRVTYSKMFQP	not soluble
MSVSLEQTLGFRIKVTNVLDVVTEGRLYSFNSSNNTLTIQTTKKNQSPQNFKVIKCTFIKHLEVIGDKPSFNSFKKQQIKPSYVNVERVEKLLKESVIASKKKELLRGKGVSAEGQFIFDQIFKTIGDTKWVAKDIIILDDVKVQPPYKVEDIKVLHEGSNQSITLIQRIVERSWEQLEQDDGRKGG	soluble
MSVTVDDKDVSLNMIRPFEILTLPIPAGVAGKSLVWRFINDYGAISQPLKKNL	not soluble
MSWFISRKDIAYISRGAKLLGCGGGGDTKTTQRLLESIMKEDDQINVLQYEDLTEQVVATVCFAGSPILYEEQLPRGDEGQMVFQEYQLKTNKKIDAVISAEIGGMNALIPLVVALQTGCAVVDGDGMGRAFPEFTMTTFYMHGLPISPLILLTRDGKQHLIEGAANDRIVRDNRQLLNMHGGFGHFICCGADANVVKNMMVSGTLKLAYRLGRAMEQDQLSAAAGWTAVEDEWENSIYGKPTLLIKGTVESVVRTFDQEQIVGELTIIGKQRFIGTTLTVSFHNEFIAVKKEGQYLVMVPDLIIIVNAKTFLPYTTNEIQRGMSVLIYAIPAPNVLRQKQMIDHVGPQAYGLDVPYEPFFLEHHHHHH	not soluble
MSWLRTELWTAEVVYTGFGTPMLRGALAVQGGFVVGQGSLEELRARFPEGEVVHKGLALLPPPVNAHTHLDLSLLPLYRGPFAGFLSHVVAHRERRGLEGAKRGLEELLASGVGAFADIVFKDEVMDFLLQESPLPGVAFYEVFAPEPSLAEEVYRAVRRKVEAWRRREGKVKVGLSPHAPYSVSPPLLKRLAEWARAEGLPLMVHAAESPEEVAFLLRGEGPLREVYGRFAKTPWTPPGTTPVRHLHALGVLGPTTLLVHGVQVDEEEVGLLAETGTKVVLCPRSNRNLEVGEAPLALYAKHGVELALGTDSRGSSPDLDVKNEARFLWGRAEPRLLVRALTRGGYRALGLPTPRLTRGTPLSLVHFL	soluble
MTAATATANGNHSIEDPVVMKVQAASPIQETDFFENLYQMECFRTGEFYLKSGQMTPIYIDLRRIMSSPRVLRMAAQAMCEKIVASNLKFDYVVGVPYAALPLATLVSDILNVPMLMKRKEAKAYGTKQLIEGVYQPGGTVLLVEDVVTSGESIRETAEAIRNENLLVTDAIAVLDRQQGATANLAEDNLNFLSFLTMEKILDGLITKNEMTEERKHEIIAHLAKPF	soluble
MTADWVVTFTFDADPSMETMDAWETQLEGFDALVSRVPGHGIDVTVYAPGDWSVFDALAKMAGEVMPVVQAKSPIAVQIISEPEHRLRAEAFTTPELMSAAEIADELGVSRQRVHQLRSTAGFPAPLADLRGGAVWDAAAVRRFAETWERKPGRPHTGTAKFAYSWAVGPAVGRSGKAPNVRWRVENPDKIRFVLRNIGDDIAEDVEIDLSRIDAITRNVPKKTVIRPGEGLNMVLIAAWGHPLPNQLYVRWAGQDEWAAVPLHPAH	soluble
MTAFAAASPRAAVRTGFDGLAISVATRAMMKNLDQNFDAILITGPTASGKSALALRLARERNGVVINADSMQVYDTLRVLTARPSDHEMEGVPHRLYGHVPAGSAYSTGEWLRDISGLLSDLRGEGRFPVIVGGTGLYFKALTGGLSDMPAIPDDLREGLRARLIEEGAAKLHAELVSRDPSMAQMLQPGDGQRIVRALEVLEATGKSIRDFQRASGPMIIDPERAQKFIVLPERPVLHDRINRRFEAMMDSGAVEEVQALLALNLAPDATAMKAIGVAQIADMLTGRMGAAEVIEKSAAATRQYAKRQMTWFRNQMGDDWTRIQPAAALEHHHHHH	not soluble
MTAFVHTLSDGMELTVEIKRRAKKNLIIRPAGTHTIRISVPPCFSVSALNRWLYENEAVLRQTLAKTPPPQTAENRLPESILFHGRQLALTAHQDTQILLMPSEIRVPEGAPEKQLALLRDFLERQAHSYLIPRLERHARTTQLFPAPSSLTSAKTFWGVCRKTTGIRFNWRLVGAPEYVADYVCIHELCHLAHADHSRAFWALTRRFAPYTPEAKQWLKIHGRELFALGLEHHHHHH	not soluble
MTAGVTTGAFYKHFTSKEALFEEIIQPHINALINMYNEEFAKYLLNLENIDIEKSWRENFNELDPFINYIFENKRIFDLVLFQSAGTKYQDIVEKITSFVTKKTVCCLDKLKTIGMINQNLVFNEEEIHFYIYSFYATFYDILKHSYSKEKTMLLTRRLYQFSVPGWIELLS	not soluble
MTAHPQEDHYKYKKVISIGVVSELTGLSQRQIRYYEERKLVFPDRSRGIRKYSFADVEQLMKIANQREEGVSTWEIRQEMTKELRERMLKGQMNAHFRRRS	not soluble
MTAIAPVITIDGPSGAGKGTLCKAMAEALQWHLLDSGAIYRVLALAALHHHVDVASEDALVPLASHLDVRFVSTNGNLEVILEGEDVSGEIRTQEVANAASQVAAFPRVREALLRRQRAFRELPGLIADGRDMGTVVFPDAPVKIFLDASSEERAHRRMLQLQEKGFSVNFERLLAEIKERDDRDRNRAVAPLVPAADALVLDSTTLSIEQVIEKALQYARQKLALA	soluble
MTALEVLGGWPVPAAAAAVIGPAGVLATHGDTARVFALASVTKPLVARAAQVAVEEGVVNLDTPAGPPGSTVRHLLAHTSGLAMHSDQALARPGTRRMYSNYGFTVLAESVQRESGIEFGRYLTEAVCEPLGMVTTRLDGGPAAAGFGATSTVADLAVFAGDLLRPSTVSAQMHADATTVQFPGLDGVLPGYGVQRPNDWGLGFEIRNSKSPHWTGECNSTRTFGHFGQSGGFIWVDPKADLALVVLTARDFGDWALDLWPAISDAVLAEYTLEHHHHHH	soluble
MTAPRYPRDMIGYGATPPNANWPGNARIAVQIVLNYEEGGENNILHGDAASEAFLSEIVGAAPWPGQRHWNMETIYEYGARAGFWRLHRLMRDLPVTVYGVATALARSPDQVAAMKSAGWEIASHGLKWVEHKDMPEEEERAQIAEAIRLHTEVTGSRPRGWYTGRCSMNTVRLASEAGIDYIADTYDDDLPYWKRIDGRDQLIVPYTLDCNDMRFATPQGFNSGDQFFAYLKDSFDALYAEGGEGAPKMLSIGLHCRLIGRPGRVMALKRFLDYARGHEDVWFATRLQIAEHWVREHPPVARTRPSEMPKADFVAAYGGIFEHSPWIAERAHGLELGPAHDTAGGLHNALCRMFRSASAEERLGVLTAHPDLAGKLAQAKRLTAESTSEQASAGLDALTDEERTTFTRLNTEYVARFGFPFIIAVRDHDKASILAAFQRRIGNDRETEFAEACRQVERIAEFRLRDVLPSLEHHHHHH	soluble
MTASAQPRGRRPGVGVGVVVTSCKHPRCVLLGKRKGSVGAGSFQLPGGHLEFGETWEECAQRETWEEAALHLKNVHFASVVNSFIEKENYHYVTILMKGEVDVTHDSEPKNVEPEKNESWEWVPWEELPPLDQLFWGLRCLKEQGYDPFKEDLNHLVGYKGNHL	soluble
